Ends that are not written are not given here.
Biological target: anti-SPAPP monoclonal antibody CM61
Experiment: competition EIA: SPAPP in 83% human plasma competes with plate-coated SPAPP for 10 ng/ml CM61

MLPGLALLLLAAWTARA-OH [amyloid precursor protein signal peptide (SPAPP), …-COOH] showed a lowest antigen concentration detectable by competition greater than 200 pg/mL.
